Test results published in patent US20160200813A1 (AbbVie / Abbott, published 2016).
Where “and” joins values, the source holds several entries; their conditions need not be identical. Equal values may be shown once. One block for each binder: values may come before it. *1 amine or outer side, *2 acyl side, *3 side chain or, on linkers, in order; H or OH if unused. Bridges are numbered along the chain shown (N, C = ends). Where no end group is shown, it is not given here. Lys(Aoa) = NOCC(=O)NCCCC[C@H](N[*:1])C(=O)[*:2]

Columns and labels:
[1] = target: T1, CR1.4 variant cyclic peptide (human, disulfide 1-13); assay: BIACORE and direct ELISA
T1 peptide: H-CEKDQAQARAERCIPSVWR-{Lys(Aoa)-NH2}

[2] = target: T2, Cynomolgus monkey LRP-8 expressed on HEK293 cells (cynomolgus monkey); assay: FACS, cyno LRP8 cells
T2 construct: whole, on cells; also called cyno LRP-8; cLRP-8

[3] = target: T3, CR1 cyclic peptide of human LRP-8 (human, disulfide 1-13); assay: ELISA using CR1 peptide
T3 construct: also called CR1 peptide; conjugated human LRP-8 CR1 peptide
T3 peptide: CEKDQFQSRNERCIPSVWR-{Lys(Aoa)-NH2}

[4] = target: T4, Human LRP-8 (isoform 3) expressed on cells (human, UniProt Q14114 33-963); assay: cell-based binding assay, hLRP8
T4 construct: also called hLRP-8; huLRP-8
T4 sequence (Q14114 other isoform, or with tags, fused parts or gaps limits assumed): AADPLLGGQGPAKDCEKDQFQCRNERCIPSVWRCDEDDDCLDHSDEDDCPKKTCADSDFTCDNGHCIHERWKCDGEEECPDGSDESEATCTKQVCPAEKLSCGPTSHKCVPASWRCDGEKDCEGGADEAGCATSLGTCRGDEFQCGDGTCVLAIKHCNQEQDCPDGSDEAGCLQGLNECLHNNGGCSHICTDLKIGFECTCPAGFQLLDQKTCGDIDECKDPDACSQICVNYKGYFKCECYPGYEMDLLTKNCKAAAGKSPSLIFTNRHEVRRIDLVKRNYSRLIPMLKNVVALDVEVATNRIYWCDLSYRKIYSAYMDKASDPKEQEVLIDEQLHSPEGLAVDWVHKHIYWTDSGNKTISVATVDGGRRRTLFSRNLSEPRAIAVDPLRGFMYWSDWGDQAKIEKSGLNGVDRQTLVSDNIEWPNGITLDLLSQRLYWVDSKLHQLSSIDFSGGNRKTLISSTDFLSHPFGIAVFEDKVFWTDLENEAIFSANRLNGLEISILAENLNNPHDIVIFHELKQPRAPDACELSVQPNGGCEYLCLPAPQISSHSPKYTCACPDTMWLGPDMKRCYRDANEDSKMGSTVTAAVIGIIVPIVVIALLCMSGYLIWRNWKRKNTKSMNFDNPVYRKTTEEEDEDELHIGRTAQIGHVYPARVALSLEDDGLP

[5] = target: T2, Cynomolgus monkey LRP-8 expressed on …; assay: cell-based binding assay, cynoLRP8
[6] = target: T5, CR1.1 variant cyclic peptide (human, disulfide 1-13); assay: ELISA, antibody titrated on coated CR1.1 peptide
T5 peptide: H-CEKDQAQSRNERCIPSVWR-{Lys(Aoa)-NH2}
Description: (§1) High binding MSD plates (MSD Cat# L15XB-3/L11XB-3) were coated with 1 μg/ml of CR1 or CR2 peptide overnight at 4° C. The next day, the plate was blocked with 3% MSD blocking buffer (MSD Cat# R93AA-01) for 1 hour at RT. The plates were washed with TTBS buffer (20 mM Tris; 0.5% Tween, 150 mM sodium chloride; pH 7.5) three times and a titer of anti-LRP-8 human Fc Ab was added. After incubating for 1 hour at RT, plate was washed and anti-human SULFO-TAG Ab was added to the plate and incubated for 1 hour. The plates were washed and immersed in MSD read buffer T with surfactant (MSD Cat# R92TC-1) before reading on an MSD SECTOR Imager 6000. Data were obtained and analyzed using a GraphPad Prism 6 software package (GraphPad Software, Inc., La Jolla, Calif.).

[7] = target: T6, CR1.2 variant cyclic peptide (human, disulfide 1-13); assay: ELISA, antibody titrated on coated CR1.2 peptide
T6 peptide: H-CEKDQFQARNERCIPSVWR-{Lys(Aoa)-NH2}
Description: as §1

[8] = target: T7, CR1.3 variant cyclic peptide (human, disulfide 1-13); assay: ELISA, antibody titrated on coated CR1.3 peptide
T7 peptide: H-CEKDQFQSRAERCIPSVWR-{Lys(Aoa)-NH2}
Description: as §1

[9] = target: T4, Human LRP-8 (isoform 3) expressed on …; assay: cell-based MSD-ECL binding on cells overexpressing human LRP-8 variant 3 (hLRP8 assay)
Description: (§2) A cell-based ECL-MSD binding assay was used to determine antibody affinity. HEK293 cells overexpressing human, monkey or mouse LRP-8 were added onto MSD 96-well plate (MSD Cat# L15XB-3/L11XB-3) and incubated at 37° C. for one hour. Cells were blocked using 15% FBS (Hyclone, Thermo Scientific Cat# SH300700.03) at RT for 30 minutes with mild agitation. Plates were washed with DPBS three times and Abs or DVD-Ig binding proteins were added to the well. After incubation at RT for one hour, plates were washed with DPBS and goat anti-human or anti-mouse Sulfo TAG (MSD Cat#R32AJ-1) was added. Plates were incubated at RT for one hour, washed with DPBS and immersed in MSD read buffer (MSD Cat#R92TD-2) before reading on a MSD SECTOR Imager 6000. EC50 values were obtained using Xlfit4 software system.

[10] = target: T2, Cynomolgus monkey LRP-8 expressed on …; assay: cell-based MSD-ECL binding on cells overexpressing cyno LRP-8 variant 1 (cynoLRP8 assay)
Description: as §2

[11] = target: T3, CR1 cyclic peptide of human LRP-8; assay: antibody titrated on plates coated with 1 ug/ml CR1 peptide (Example 1.12.2); lower table, column ng/ml
Description: as §1

[12] = target: T8, CR2 cyclic peptide of human LRP-8 (human, disulfide 1-13); assay: antibody titrated on plates coated with 1 ug/ml CR2 peptide (Example 1.12.2); lower table, column ng/ml
T8 construct: also called CR2 peptide; conjugated human LRP-8 CR2 peptide
T8 peptide: CADSDFTSDNGHCIHERWK-{Lys(Aoa)-NH2}
Description: as §1

[13] = target: T4, Human LRP-8 (isoform 3) expressed on …; assay: cell-based or functional assay
[14] = target: T2, Cynomolgus monkey LRP-8 expressed on …; assay: cell-based MSD, 1 to 5, cyno-LRP8-HEK293
[15] = target: T2, Cynomolgus monkey LRP-8 expressed on …; assay: cell-based MSD, 1 to 25, cyno-LRP8-HEK293
[16] = target: T4, Human LRP-8 (isoform 3) expressed on …; assay: cell-based MSD, 1 to 5, human_LRP8_HEK293
[17] = target: T2, Cynomolgus monkey LRP-8 expressed on …; assay: cell-based MSD, 1 to 125, cyno-LRP8-HEK293
[18] = target: T4, Human LRP-8 (isoform 3) expressed on …; assay: cell-based MSD, 1 to 25, human_LRP8_HEK293
[19] = target: T4, Human LRP-8 (isoform 3) expressed on …; assay: cell-based MSD, 1 to 125, human_LRP8_HEK293
[20] = target: T2, Cynomolgus monkey LRP-8 expressed on …; assay: cell-based binding on CYNO LRP8-HEK293, supernatant 1:5
[21] = target: T2, Cynomolgus monkey LRP-8 expressed on …; assay: cell-based binding on CYNO LRP8-HEK293, supernatant 1:25
[22] = target: T2, Cynomolgus monkey LRP-8 expressed on …; assay: cell-based binding on CYNO LRP8-HEK293, supernatant 1:125

binding result [1]: no binding
FACS (ratio +/-) [2]: 141 ratio
OD450 [3]: 4 OD450
EC50 [4]: 0.22 nM
EC50 [5]: 0.21 nM
binding result [6]: no binding (tested: 10000 ng/ml)
binding result [7]: binds
binding result [8]: binds
EC50 [9]: 0.0484 µg/mL and 0.32 nM
EC50 [10]: 0.0691 µg/mL and 0.46 nM
EC50 [11]: 0.225 µg/mL
EC50 [12]: 0.312 µg/mL
B1: chimeric anti-LRP-8 ML199.11H1.5B2 antibody [mu/hu IgG1/k] LALA (antibody, V domains shown)
VH: EVQLVESGGDLVKPGGSLKLSCAASRFTFSNYGMSWVRQTPDKRLEWVATISSGGRYTYYPDSVKGRFTISRDNAKNTLYLQMSSLRSEDTAMYYCARDYLYAMDYWGQGTSVTVSS
VL: DVVMTQTPLSLPVSLGDQASISCRSSQSLVYSNGNTYLHWYLQKPGQSPKVLMYKVSNRFSGVSDRFSGSGSGTDFTLKISRVEAEDLGVYFCSQSTHVPLTFGAGTKLELK
notes: Mouse variable domains on human IgG1/kappa with L234A, L235A (LALA); also called ML199.11H1.5B2 hFc; ML199.11H1.5B2 mu/hu IgG1 m/k

Endocytosis, fold over-IgG [13]: 5.18 fold
Transcytosis, fold over-IgG [13]: 2.17 fold
fold over IgG control [14]: 2 fold
fold over IgG control [15]: 1.9 fold
fold over IgG control [16]: 5 fold
fold over IgG control [17]: 1.8 fold
fold over IgG control [18]: 5.2 fold
fold over IgG control [19]: 5 fold
fold over isotype control [20]: 3.23 fold
fold over isotype control [21]: 1.86 fold
fold over isotype control [22]: 1.5 fold
B2: BGK-7F7 (GENOVAC candidate clone of Table 17) (antibody, V domains shown)
VH: QVTLKESGPGILQPSQTLSLTCTFSGFSLSTYGLGVGWIRQPSGKGLEWLANIWWDDAKYYNPSLKNRLTISKDTSNNQAFLKIPNVDTADTARYYCARTTKPYYFDYWGQGVMVTVSS
VL: HFVLAQPNSVSTNLGSTVKLSCKRSTANIGSNYVNWYQQHEGRSPTTLIYRDDRRPDGVPDRFSGSIDRSSNSALLTINNVQTEDEADYFCQSYSSGINIFGGGTKLTVL
notes: here the candidate from rat immunization before chimerization, tested at dilutions
